Measurements from patent US8796201B2 (The Board of Trustees of the Leland Stanford Junior …, priority 2002, dated 2014).

B1: FM PEP: recombinant prolyl endopeptidase from Flavobacterium meningosepticum (Genbank D10980) (protein)
chain: QNSNVLKYPETKKVSHTDTYFGTQVSDPYRWLEDDRAEDTKAWVQQEVKFTQDYLAQIPFRDQLKKQLMDIWNYEKISAPFKKGKYTYFSKNDGLQAQSVLYRKDAAGKTEVFLDPNKFSEKGTTSLASVSFNKKGTLVAYSISEGGSDWNKIIILDAETKKQLDETLLDVKFSGISWLGDEGFFYSSYDKPKEGSVLSGMTDKHKVYFHKLGTKQSQDELIIGGDKFPRRYIGAYVTDDQRYLVVSAANATNGNELYIKDLKNKTDFIPIITGFDSNVNVADTDGDTLYLFTDKDAPNKRLVKTTIQNPKAETWKDVIAETSEPLEINTGGGYFFATYMKDAIDQVKQYDKNGKLVRAIKLPGSGNASGFGGEKTEKDLYYSFTNYITPPTIFKYNVTTGNSEVYQKPKVKFNPENYVSEQVFYTSSDGTKIPMMISYKKGLKKDGKNPTILYSYGGFNISLQPAFSVVNAIWMENGGIYAVPNIRGGGEYGKKWHDAGTKMQKKNVFNDFIAAGEYLQKNGYTSKEYMALSGRSNGGLLVGATMTMRPDLAKVAFPGVGVLDMLRYNKFTAGAGWAYDYGTAEDSKEMFEYLKSYSPVHNVKAGTCYPSTMVITSDHDDRVVPAHSFKFGSELQAKQSCKNPILIRIETNAGHGAGRSTEQVVAENADLLSFALYEMGIKSLK
B2: MX PEP: novel recombinant prolyl endopeptidase from Myxococcus xanthus (Genbank AF127082, SEQ ID NO:47) (protein, listed as Myxococcus xanthus)
chain: MSYPATRAEQVVDTLHGVQVADPYRWLEDEKAPEVQTWMTAQNAHAREALAKFPGREALAARFKELFYTDSVSTPSRRNGRFFYVRTHKDKEKAILYWRQGESGQEKVLLDPNGWSKDGTVSLGTWAVSWDGKKVAFAQKPNAADEAVLHVIDVDSGEWSKVDVIEGGKYATPKWTPDSKGFYYEWLPTDPSIKVDERPGYTTIRYHTLGTEPSKDTVVHERTGDPTTFLQSDLSRDGKYLFVYILRGWSENDVYWKRPGEKDFRLLVKGVGAKYEVHAWKDRFYVLTDEGAPRQRVFEVDPAKPARASWKEIVPEDSSASLLSVSIVGGHLSLEYLKDATSEVRVATLKGKPVRTVQLPGVGAASNLMGLEDLDDAYYVFTSFTTPRQIYKTSVSTGKSELWAKVDVPMNPEQYQVEQVFYASKDGTKVPMFVVHRKDLKRDGNAPTLLYGYGGFNVNMEANFRSSILPWLDAGGVYAVANLRGGGEYGKAWHDAGRLDKKQNVFDDFHAAAEYLVQQKYTQPKRLAIYGGSNGGLLVGAAMTQRPELYGAVVCAVPLLDMVRYHLFGSGRTWIPEYGTAEKPEDFKTLHAYSPYHHVRPDVRYPALLMMAADHDDRVDPMHARKFVAAVQNSPGNPATALLRIEANAGHGGADQVAKAIESSVDLYSFLFQVLDVQGAQGGVAAQGR

How the values were obtained:
PQPQLPYPQPQLP = assay: Site specificity of […] hydrolysis, LC/MS/MS; assay type: biochemical, wheat; conditions: 100 μM peptide, 0.1 μM enzyme, early time points
Protocol: FIG. 10. Site specificity of […] hydrolysis by individual PEPs. HPLC-UV (215 nm) traces are shown for each reaction mixture. Initial cleavage fragments (100 μM (SEQ ID NO:4) […], 0.1 μM enzyme, t=5 min) were identified by tandem mass spectrometry. The starting material (SEQ ID NO:4) […] and the cleavage fragments A: (SEQ ID NO:4, aa. 1-8) […], B: (SEQ ID NO:4, aa 7-13) YPQPQLP, C: (SEQ ID NO:12, aa 1-6) PQPQLP, D: (SEQ ID NO:4, aa 2-6) QPQLP) are indicated in the traces.
The decrease in substrate concentration as well as concomitant intermediate and product build-up were monitored with HPLC analysis. RP-HPLC was performed on a system consisting of Beckman or Rainin Dynamax SD-200, a Varian 340 UV detector set at 215 nm and 280 nm. Solvent A was H2O with 0.1% TFA and solvent B was acetonitrile with 0.1% TFA; gradient used: 0-5% B in 0-15 min, 5-30% B in 15-30′, 30-100% B in 30-35 min, 100% B for 5′; flow 1 ml/min; separation was performed on a 4.6×150 mm reverse phase C-18 column (Vydac, Hesperia, Calif., USA). Samples were centrifuged for 10 min at 13,400 g, prior to injection of 10-100 μl. […] Thus, multiple peptides accumulate during the course of the reaction, some of which are secondary PEP substrates in themselves.
To analyze the regiospecificity of hydrolysis of (SEQ ID NO:4) […] by individual PEPs, samples corresponding to early time points were further analyzed by LC/MS/MS. […]

[1] = pH stability (activity retained after acid exposure); assay type: in vitro ADME; conditions: after 10 min of incubation at pH values between 1.6 and 3.9
Protocol: pH Stability. The ability to retain enzyme activity after exposure to acidic environments was determined. […] The recovered enzyme activity was measured spectrophotometrically and compared with non-acid treated controls under identical conditions. PEP Stability. Although orally administered therapeutic proteins can be formulated to protect them from the acidic and proteolytic environment of the stomach, intrinsic acid stability of a PEP is likely to be a desirable characteristic in its use as a therapeutic agent for Celiac Sprue. […] Thus, although all PEPs appear to be moderately acid-stable, the MX PEP is most versatile. Since therapeutic efficacy would require a PEP to act upon gluten in conjunction with pancreatic proteases that are secreted into the duodenum, the resistance of FM PEP and MX PEP toward both gastric and pancreatic enzymes was evaluated. For this we pre-incubated the enzymes with physiological quantities of either pepsin (at pH 2) or a cocktail comprising of trypsin, chymotrypsin, elastase and carboxypeptidase A (at pH 6.5).

pepsin = assay: Gastric protease stability; assay type: in vitro ADME; conditions: 1 mg/ml pepsin, pH 2
Protocol: (§1) FIG. 9. Resistance of the FM PEP and the MX PEP to inactivation by gastric and pancreatic enzymes. Pancreatic enzyme stability was evaluated by treating 5 U/ml of the FM PEP and the MX PEP with 1 mg/ml trypsin, 1 mg/ml chymotrypsin, 0.2 mg/ml elastase and 0.2 mg/ml carboxypeptidase A (40 mM phosphate, pH=6.5). Pepsin stability was tested by treating the FM PEP and the MX PEP (5 U/ml) with 1 mg/ml pepsin (pH=2, 20 mM HCl).
(§2) Gastric and Pancreatic Protease Stability. […] Absorption was measured at 410 nm for 1 to 2 min every 10 s to assay residual activity. […] Enzyme activities are expressed as a percentage of the maximum activity, typically observed at the zero time point.
(§3) PEP Stability. […] We therefore evaluated the extent to which the activity of each PEP remains intact after 10 min of incubation at selected pH values between 1.6 and 3.9. […] Since therapeutic efficacy would require a PEP to act upon gluten in conjunction with pancreatic proteases that are secreted into the duodenum, the resistance of FM PEP and MX PEP toward both gastric and pancreatic enzymes was evaluated. For this we pre-incubated the enzymes with physiological quantities of either pepsin (at pH 2) or a cocktail comprising of trypsin, chymotrypsin, elastase and carboxypeptidase A (at pH 6.5).

[2] = tested on: trypsin, chymotrypsin, elastase and carboxypeptidase A; assay: Pancreatic protease stability; assay type: in vitro ADME; conditions: pH 6.5
Protocol: as §1, §2, §3

Molecule	preferred site of cleavage in PQPQLPYPQPQLP (PQPQLPYPQPQLP)	original activity retained [1]	resistance to pepsin (pepsin)	resistance to pancreatic enzymes [2]
B1	PQPQLPPYP|QPQLP	50-70%	highly susceptible to pepsin catalyzed proteolysis	remarkably stable to destruction
B2	PQPQLP|YPQPQLP	70-90%	highly susceptible to pepsin catalyzed proteolysis	remarkably stable to destruction
